# From US5840283A, “Composition and method for treating diseased nails” (Sorenson Pharmaceutical, Inc., priority 1997, dated 1998)
# Counter-ions that a name gives are not always drawn. Like-named read-outs stand apart in the source and are kept apart here.
# B1: papain: proteolytic enzyme (protein, UniProt P00784 134-345, looked up)
# Papain: IPEYVDWRQKGAVTPVKNQGSCGSCWAFSAVVTIEGIIKIRTGNLNEYSEQELLDCDRRSYGCNGGYPWSALQLVAQYGIHYRNTYPYEGVQRYCRSREKGPYAAKTDGVRQVQPYNEGALLYSIANQPVSVVLEAAGKDFQLYRGGIFVGPCGNKVDHAVAAVGYGPNYILIKNSWGTGWGENGYIRIKRGTGNSYGVCGLYTSSFYPVKN
# B2: ICN papain 2× crystallized powder: ICN Company papain, 2× crystallized powder (protein, UniProt P00784 134-345, looked up)
# Papain: B1 Papain
# modifications: crystallized powder
# notes: ICN Company papain, 2× crystallized powder
# B3: Sigma papain, product no. P4762: Sigma Co., product no. P4762, 2× crystallized, lyophilized powder (protein, UniProt P00784 134-345, looked up)
# Papain: B1 Papain
# modifications: lyophilized powder
# notes: Sigma Co., product no; P4762, 2× crystallized, lyophilized powder
# B4: Sigma papain: papain product of Sigma, approximately eighty percent protein (protein, UniProt P00784 134-345, looked up)
# Papain: B1 Papain
# modifications: commercial preparation
# notes: papain product of Sigma, approximately eighty percent protein
# B5: ICN papain 2× crystallized suspension: ICN Company papain, 2× crystallized suspension form (protein, UniProt P00784 134-345, looked up)
# Papain: B1 Papain
# modifications: crystallized suspension
# notes: ICN Company papain, 2× crystallized suspension form
# B6: USP papain: papain of United States Pharmacopeia standard (protein, UniProt P00784 134-345, looked up)
# Papain: B1 Papain
# modifications: USP standard
# B7: Marcor papain: Marcor Company (Hackensack, N.J.) papain (protein, UniProt P00784 134-345, looked up)
# Papain: B1 Papain
# modifications: commercial Marcor preparation
# Assays:
# [1] = type: in vitro ADME, human
# Procedure: The efficacy of the nail-permeable medication means of the present invention was first evaluated by conducting comparative studies comprising application of a selected drug applied to a human nail in vitro as compared to the application of the nail-permeable medication means containing the same drug applied to a human nail in vitro. Specifically, these tests were conducted using diseased human toenails which were surgically removed from patients as a means of curing the disease condition of the nail.
# Each nail was maintained in an environment simulating an in vivo condition. Each nail was maintained suspended on a plastic holder which allowed air to circulate about the nail. Each nail holder was retained in a separate enclosed system the temperature and humidity within which could be carefully regulated to simulate the human body. These artificial in vivo environments provided the diffusion cells in which the studies were conducted.
# Human nails were prepared by cleaning and, in some instances, grinding the nail down to establish a more even thickness across the nail. The nails were then hydrated using distilled water to render the nails pliable for placement in the diffusion cell. […] A Teflon® donor compartment 16 was positioned over the nail 12 and the nail saddle 14 was joined to the donor compartment 16 by placement of a silicone sealant about the edges of the nail 12 and donor compartment 16. After the silicone cured, water leakage was tested and the nails were resealed if necessary. […] Attempts were made to use an appropriate size "O" ring 18 to form the seal between the nail saddle 14 and the donor compartment 16.
# The cell 10 was used by adding solvent, usually de-ionized water, until the solvent came into contact with the nail. […] When semi-solid treatment formulations were used, excess product was removed from the nail by cleansing with cotton swabs after twenty-four hours and prior to application of another nail treatment or pre-treatment product. Pretreatment products (e.g., hydrating fluid, etc.) and treatment products (i.e., nail-permeable medication means) were changed or supplemented daily throughout the experimental period.
# After addition of the pretreatment or treatment product, the opening of the donor cell 10 was occluded with silicone cement/sealant. The possibility of entrapped air at the interface of the receiver solvent and nail was checked daily, as well as at the beginning of the experiment. To control this problem, care was taken to be certain that no bubbles were present at the time solvents were added and the nail placed in the saddle. Bubbles may not be visible after the apparatus is fully assembled. Also, dissolved gases tend to separate into bubbles and rise to the nail/receiver interface during the process.
# Ciclopirox olamine (6-Cyclohexyl 1-hydroxy 4-methyl 2(1H)-pyridone, 2-aminoethanol salt [Bertrafen]), an antimycotic drug, was used in the nail-permeable medication means of the invention for the purposes of testing and analysis. Three analytical methods are identified in the literature which appear to be acceptable means of determining drug diffusion rates. One method requires the use of radio-labeled drug, and another method utilizes LC (liquid chromatography) equipment. The third method, described by Belliardo, et al., in "Micro-liquid chromatography method for the determination of ciclopirox olamine after pre-column derivatization in topical formulations" Jr. Chromatography, Vol. 553 (1991), p. 41-5, was the method used here. However, because of lack of access to a micro-LC system, lesser concentrations of ciclopirox olamine (<1-2 μg/ml of diffusion fluid) were unquantifiable. Lesser concentrations were sometimes seen as small irregularities on the HPLC (high-pressure liquid chromatography) tracing, but the identity was not confirmed by computer. […]
# [2] = tested on: T. rubrum; details: cited from earlier work
# [3] = pilot clinical study in patients with subungual onychomycosis; type: in vivo, human; details: arm 3; patient's assessment of clinical results 1-5, 5 positive
# Text: Patients enrolled in the study were diagnosed with subungual onychomycosis from a positive culture of a target nail. The target nail was that nail most severely involved with symptoms of onychomycosis. […] Patients with a history of non-response to standard antimycotic treatments, or severe abnormalities or deformities of the assessed fingers or toes, were excluded.
# The protocol called for an eleven month treatment period.
# Patients visited their physicians on a monthly basis for evaluation. Clinical measurements and mycological cultures were taken on alternating visits. Adverse events were defined as any abnormal inflammation of the tissues surrounding the nail from the patient's pretreatment condition and were checked by their physician or reported as they occurred. Patient evaluations of clinical treatment were obtained by a survey of patients. Ease of application, convenience of application, and patient's assessments of the clinical results were rated by patients on a scale of 1 to 5 with 1 indicating visible effect and 5 being positive. In addition, patients were also asked to respond to treatment compliance by reporting the number of days per week which they applied their medication as prescribed.
# Therefore, patients treated in arm 3 (antifungal only) of the study were used as the baseline upon which clinical and mycologic results were measured.
# [4] = duration of papain activity after mixture with water; type: physicochemical; details: certain activators present
# Text: The nail-permeable medication means also includes a medicament which is especially selected for treatment of a particular disease condition. The concentration of medicament in the nail-permeable means is sufficient to effectively control or eliminate the disease condition. […] It is notable in that respect that many medications have a water base, or have a water component in addition to certain activators (e.g. thiols and mercaptans which include cysteine and a chelating agent, such as EDTA [ethylenediaminetetraacetic acid]) which, when admixed with the enzymatic composition, may begin to degrade the enzyme and/or reduce its effectiveness. However, admixture of a water-based or water-containing medicament with a proteolytic enzyme will typically degrade the enzymatic component slowly enough that significant penetration of the nail still takes place and the medicament is successfully delivered to the disease site. Generally, papain and other proteolytic enzymes are effective for approximately twenty-four hours after mixture with water where certain activators are present. In the absence of such activators, papain may remain active for up to two years.
# [5] = cited from earlier work
# [6] = tested on: casein substrate; details: cited from earlier work
molecule,measurement,setting,value
"Cc1cc(C2CCCCC2)n(O)c(=O)c1 [ciclopirox olamine, 6-Cyclohexyl 1-hydroxy 4-methyl 2(1H)-pyridone, 2-aminoethanol salt]",amount of drug diffused compared with soaked nails,[1],less than when the nails were soaked with the papain-plus-activators
same,"diffusion of drug through the nail, control without proteolytic enzyme component",[1],no diffusion of drug through the nail
same,drug diffusion for the seven-day period,[1],2 to 6 µg/mL
same,effect of increasing papain concentration on amount of drug diffused,[1],did not increase the amount of drug diffused
same,effect of soaking time on amount of drug diffused,[1],the amount of drug that diffused through the treated nails also increased
same,ANALYSES (ciclopirox diffused through nail),[1]; pH 10,0 µg/mL
same,minimum inhibitory concentration (MIC),[2],10 µg/mL
same,Results (1-5),[3],1
B1,diffusion results by papain concentration,[1],optimal diffusion results
same,duration of effectiveness after mixture with water,[4],approximately twenty-four
B2,papain activity,[5]; ICN papain forms,10-20 BAEE Units of activity
B3,papain activity,"[5]; Sigma product no. P4762, 2× crystallized, lyophilized powder",16-20 BAEE units/mg
B4,papain activity,"[5]; 25° C., pH 6.2, Sigma papain product",10-20 BAEE Units per milligram of enzyme-containing material
B5,papain activity,[5]; ICN papain forms,15-40 BAEE Units of activity
B6,papain activity,[6]; USP papain,"at least 6,000 USP units per mg"
B7,papain activity,"[6]; Marcor papain, footnote of EXAMPLE I","30,000 USP Units/m activity"
same,papain activity,[6]; Marcor papain,"30,000 USP units/mg"
